# Test results as given in patent US20210115152A1 (ARBELE, published 2021).
# B1: h10G4fL (h10G4U1fL; ARB202), CDH17xCD3 bispecific antibody of the IgG-scFv / fL design, IgG4 (bispecific antibody)
# heavy: EVQLVESGGGLVQPGGSLRLSCAASGFTFSSYAMSWVRQTPGKGLEWVAVIDSNGGSTYYPDTVKDRFTISRDNSKNTLYLQMNSLRAEDTAVYYCSSYTNLGAYWGQGTLVTVSSASTKGPSVFPLAPSSKSTSGGTAALGCLVKDYFPEPVTVSWNSGALTSGVHTFPAVLQSSGLYSLSSVVTVPSSSLGTQTYICNVNHKPSNTKVDKRVEPKSCDKTHTCPPCPAPELLGGPSVFLFPPKPKDTLMISRTPEVTCVVVDVSQEDPEVQFNWYVDGVEVHNAKTKPREEQFNSTYRVVSVLTVLHQDWLNGKEYKCKVSNKGLPSSIEKTISKAKGQPREPQVYTLPPSQEEMTKNQVSLTCLVKGFYPSDIAVEWESNGQPENNYKTTPPVLDSDGSFFLYSRLTVDKSRWQEGNVFSCSVMHEALHNHYTQKSLSLSLGKPAGGGGSEVQLVESGGGLVQPGGSLRLSCAASGYSFTGYTMNWVRQAPGKGLEWVALINPYKGVSTYNQKFKDRFTISVDKSKNTAYLQMNSLRAEDTAVYYCARSGYYGDSDWYFDVWGQGTLVTVSSGGGGSGGGGSGGGGSDIQMTQSPSSLSASVGDRVTITCRASQDIRNYLNWYQQKPGKAPKLLIYYTSRLESGVPSRFSGSGSGTDYTLTISSLQPEDFATYYCQQGNTLPWTFGQGTKVEIK
# light: DIQMTQSPSSLSASVGDRVTITCRASQDISGYLNWLQQKPGGAIKRLIYTTSTLDSGVPKRFSGSGSGTDFTLTISSLQSEDFATYYCLQYASSPFTFGGGTKVEIKRTVAAPSVFIFPPSDEQLKSGTASVVCLLNNFYPREAKVQWKVDNALQSGNSQESVTEQDSKDSTYSLSSTLTLSKADYEKHKVYACEVTHQGLSSPVTKSFNRGEC
# Columns and labels:
# [1] = target: CD3 on Jurkat T cells (UniProt P07766 23-207); assay: cell-based or functional assay
# [2] = target: T1, CDH17 on tumor cells (DLD-1, AGS, AsPC1, CDH17-positive pancreatic and colon lines, SW40 with ectopic CDH17) (UniProt Q12864 23-832, limits assumed); assay: cell-based or functional assay
# T1 sequence (looked up): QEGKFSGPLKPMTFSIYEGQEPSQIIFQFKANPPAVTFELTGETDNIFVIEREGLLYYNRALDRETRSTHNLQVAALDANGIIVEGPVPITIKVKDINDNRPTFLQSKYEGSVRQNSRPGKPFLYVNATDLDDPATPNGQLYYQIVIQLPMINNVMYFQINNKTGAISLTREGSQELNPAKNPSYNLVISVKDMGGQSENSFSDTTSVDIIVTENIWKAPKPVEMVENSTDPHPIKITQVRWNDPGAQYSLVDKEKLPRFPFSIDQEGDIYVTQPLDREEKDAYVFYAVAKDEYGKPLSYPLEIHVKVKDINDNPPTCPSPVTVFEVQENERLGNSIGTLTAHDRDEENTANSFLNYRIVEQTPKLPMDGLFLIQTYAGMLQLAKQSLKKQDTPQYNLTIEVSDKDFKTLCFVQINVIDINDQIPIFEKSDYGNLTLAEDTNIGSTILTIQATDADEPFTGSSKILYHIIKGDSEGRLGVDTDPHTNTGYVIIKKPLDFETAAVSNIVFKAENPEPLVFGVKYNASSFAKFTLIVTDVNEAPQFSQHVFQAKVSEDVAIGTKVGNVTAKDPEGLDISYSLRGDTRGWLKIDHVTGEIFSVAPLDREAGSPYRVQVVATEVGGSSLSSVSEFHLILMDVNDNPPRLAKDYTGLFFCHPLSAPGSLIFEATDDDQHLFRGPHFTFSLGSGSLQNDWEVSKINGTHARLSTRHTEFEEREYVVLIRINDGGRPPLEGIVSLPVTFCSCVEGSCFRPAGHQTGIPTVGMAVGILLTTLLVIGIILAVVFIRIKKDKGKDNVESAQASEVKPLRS
# CD3 on Jurkat T cells, sequence (P07766 23-207): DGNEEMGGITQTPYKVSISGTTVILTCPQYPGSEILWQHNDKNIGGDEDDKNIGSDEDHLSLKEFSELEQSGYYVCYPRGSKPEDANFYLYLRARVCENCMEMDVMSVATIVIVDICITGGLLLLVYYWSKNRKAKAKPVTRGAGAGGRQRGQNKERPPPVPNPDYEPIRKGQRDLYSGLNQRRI
binder,measurement,setting,value
B1,EC50 of IL2 production by PBMC in the absence of AsPC1 tumor cells,[1],≥ 18.7 nM
same,"EC50 of IL2 production by PBMC in the presence of AsPC1 tumor cells (5:1, 16 hours)",[2],0.03 nM
